The series addresses Klenow fragment DNA polymerase (UniProt P00582 P00582:324-928). Nature of the series: primer extension, 7 mM MgCl2, 50 mM NaCl, 37 C. As to conditions: tags: Pharmacia Lot NM 92818; label: 5'-32P on 17 mer. Here is the method: The 120 mer (1 μg=25 pmoles) was incubated with a ten-fold molar excess (1.4 μg=250 pmoles) of 17 mer including all of the radioactively labeled 17 mer described above at 60° C. for 5 minutes and then slowly cooled over 30 minutes to 37° C. in a volume of 20.2 μl in 1.3×Klenow buffer (1×Klenow buffer is 7 mM Tris-HCl (pH 7.5), 7 mM MgCl_2, 50 mM NaCl). To this cooled reaction mix was added 2 μl of a solution of 0.4 mM dATP, dCTP, dGTP, dTTP (final conc.=32 μM of each dNTPs), 1.8 μl of 0.1M dithiothreitol (final conc.=[…]) and 7.2 units of Klenow polymerase (Pharmacia Lot #NM 92818) in a final concentration of 1×Klenow buffer. This reaction was incubated at 37° C. for 30 minutes. An additional 7.2 units of Klenow polymerase (1 μl volume) was added and the reaction was continued at 37° C. for one hour.
The reaction products were ethanol precipitated by the addition of 375 μl of 0.3M Na Acetate (pH 5.4) and 1.1 ml ethanol (−20° C.), followed by spinning at 15,000 g's for 30 minutes. The precipitated DNA was then resuspended in 25 μl of H_2O and reprecipitated with 1 ml of 100% ethanol (4° C.) and centrifugation as above. The supernatant was removed and the precipitated DNA pellet dried under vacuum.

Sequence of Klenow fragment DNA polymerase (P00582 324-928, one chain of several): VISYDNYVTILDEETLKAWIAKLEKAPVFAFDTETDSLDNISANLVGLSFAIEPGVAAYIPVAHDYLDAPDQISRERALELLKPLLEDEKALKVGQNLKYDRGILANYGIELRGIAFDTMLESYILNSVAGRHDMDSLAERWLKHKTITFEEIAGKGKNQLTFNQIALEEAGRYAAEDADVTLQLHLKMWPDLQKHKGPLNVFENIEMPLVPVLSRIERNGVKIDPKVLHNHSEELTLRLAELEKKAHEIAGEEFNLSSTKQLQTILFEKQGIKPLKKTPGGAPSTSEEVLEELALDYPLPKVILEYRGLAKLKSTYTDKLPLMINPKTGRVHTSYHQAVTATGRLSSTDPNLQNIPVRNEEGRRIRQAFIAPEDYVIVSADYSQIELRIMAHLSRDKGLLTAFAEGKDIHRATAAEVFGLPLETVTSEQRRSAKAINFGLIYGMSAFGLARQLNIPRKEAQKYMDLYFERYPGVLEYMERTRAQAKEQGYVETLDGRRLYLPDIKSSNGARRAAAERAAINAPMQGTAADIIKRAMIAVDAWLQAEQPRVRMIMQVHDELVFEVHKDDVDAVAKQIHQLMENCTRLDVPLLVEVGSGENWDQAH

B1: 120 mer repeating template / 17 mer primer, extended (dsDNA)
DNA 1: CGGGGAATTCTTTAAATATTCCTTTAAACCTACCTTTAAACCTACCTTTAAACCTACCTTTAAACCTACCTTTAAACCTACCTTTAAACCTACCTTTAAATATTCCGAATTCACTGGCCG
DNA 2: CGGCCAGTGAATTCGGA
With B1, the binding result is listed as “binds”.

The values are drawn from patent US5273879, “Amplification method for polynucleotide assays” (Syntex (U.S.A.) Inc.).
